Tests used:
Assay in all cases: cell-based or functional assay
[1] = target: Sensor 3: NNano-hVAMP1-CNano (human)
[2] = target: In vivo assay construct: Nnano(1-159)-Firefly(Full length)-GGGGS-p25(FullLength)-Cnano(160-170) (Photinus pyralis; human)
[3] = target: Sensor 1: NNano-SV2C-p25-CNano (human)
[4] = target: Sensor 2: NNano-p25-CNano (human)

Sequence of In vivo assay construct: Nnano(1-159)-Firefly(Full length)-GGGGS-p25(FullLength)-Cnano(160-170) (Photinus pyralis; human) (P08659 other isoform, or with tags, fused parts or gaps): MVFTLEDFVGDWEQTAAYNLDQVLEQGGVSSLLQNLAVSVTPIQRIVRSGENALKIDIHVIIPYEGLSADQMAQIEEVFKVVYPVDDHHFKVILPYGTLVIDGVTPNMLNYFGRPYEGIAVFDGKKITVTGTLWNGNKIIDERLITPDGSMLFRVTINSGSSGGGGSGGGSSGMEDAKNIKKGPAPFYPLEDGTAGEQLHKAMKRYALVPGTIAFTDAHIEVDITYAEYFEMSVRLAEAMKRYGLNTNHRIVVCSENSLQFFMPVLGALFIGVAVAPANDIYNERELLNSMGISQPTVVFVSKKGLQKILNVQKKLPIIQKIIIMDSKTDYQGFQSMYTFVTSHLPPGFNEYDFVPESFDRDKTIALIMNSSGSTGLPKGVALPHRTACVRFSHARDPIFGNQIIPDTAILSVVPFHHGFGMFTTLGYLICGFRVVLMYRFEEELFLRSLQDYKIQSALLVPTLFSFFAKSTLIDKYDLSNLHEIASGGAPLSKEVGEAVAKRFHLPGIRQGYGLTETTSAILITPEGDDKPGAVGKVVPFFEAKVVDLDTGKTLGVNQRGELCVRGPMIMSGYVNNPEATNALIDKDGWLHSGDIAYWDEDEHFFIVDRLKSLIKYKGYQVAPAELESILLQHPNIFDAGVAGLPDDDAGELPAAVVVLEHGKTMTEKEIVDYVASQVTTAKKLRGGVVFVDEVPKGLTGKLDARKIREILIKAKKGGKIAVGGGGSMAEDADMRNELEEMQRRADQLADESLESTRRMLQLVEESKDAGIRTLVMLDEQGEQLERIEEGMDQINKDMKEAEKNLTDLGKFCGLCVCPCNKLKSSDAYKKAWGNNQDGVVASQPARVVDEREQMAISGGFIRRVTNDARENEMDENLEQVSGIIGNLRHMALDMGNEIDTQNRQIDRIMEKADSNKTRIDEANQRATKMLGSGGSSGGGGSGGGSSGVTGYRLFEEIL

| Substance | EC50 (percentage of luminescence of NANOLUC luciferase, after 4 h at 37 C) [1] [pM] | EC50 (percentage of luminescence of NANOLUC luciferase, after 24 h at 37 C) [1] [pM] | EC50 (ratio NANOLUC/Firefly in lysates of neurons, 48 h after toxin) [2] [pM] | EC50 (percentage of luminescence of NANOLUC luciferase, after 4 h at 37 C) [3] [pM] | EC50 (percentage of luminescence of NANOLUC luciferase, after 24 h at 37 C) [3] [pM] | fold sensitivity (EC50) against the sensor without SV2C [3] [fold] | EC50 (percentage of luminescence of NANOLUC luciferase, after 4 h at 37 C) [4] [pM] | EC50 (percentage of luminescence of NANOLUC luciferase, after 24 h at 37 C) [4] [pM] |
| --- | --- | --- | --- | --- | --- | --- | --- | --- |
| Botulinum neurotoxin B (BoNT/B) (from UniProt P10844 2-1291) (enzyme) | 75.7 | 3.9 | – | – | – | – | – | – |
| Botulinum neurotoxin A (BoNT/A) (from UniProt P0DPI0 2-1296) (enzyme) | – | – | 2.9 | 9.73 | 7.86 | 5 | 48.3 | 35.9 |
